Results from article PMC12480533 (Nature Communications, 2025).

Molecular target: the molecule itself
Test: cryo-EM structure

B1: full-length human SLC30A10 (natural protein, UniProt Q6XR72 1-485, looked up)
chain: MGRYSGKTCRLLFMLVLTVAFFVAELVSGYLGNSIALLSDSFNMLSDLISLCVGLSAGYIARRPTRGFSATYGYARAEVVGALSNAVFLTALCFTIFVEAVLRLARPERIDDPELVLIVGVLGLLVNVVGLLIFQDCAAWFACCLRGRSRRLQQRQQLAEGCVPGAFGGPQGAEDPRRAADPTAPGSDSAVTLRGTSVERKREKGATVFANVAGDSFNTQNEPEDMMKKEKKSEALNIRGVLLHVMGDALGSVVVVITAIIFYVLPLKSEDPCNWQCYIDPSLTVLMVIIILSSAFPLIKETAAILLQMVPKGVNMEELMSKLSAVPGISSVHEVHIWELVSGKIIATLHIKYPKDRGYQDASTKIREIFHHAGIHNVTIQFENVDLKEPLEQKDLLLLCNSPCISKGCAKQLCCPPGALPLAHVNGCAEHNGGPSLDTYGSDGLSRRDAREVAIEVSLDSCLSDHGQSLNKTQEDQCYVNRTHF
stoichiometry N: 2
